PMC3164469 (Molecular Biology of the Cell, 2011)

B1: core Su(H) (amino acids 98–523) (domain or fragment)
chain: not shown

Legend:
[1] = target: T1, SMT3–Hairless NTCT fusion protein (residues 232–358) (Drosophila melanogaster, UniProt Q02308 232-358); test: ITC
T1 sequence: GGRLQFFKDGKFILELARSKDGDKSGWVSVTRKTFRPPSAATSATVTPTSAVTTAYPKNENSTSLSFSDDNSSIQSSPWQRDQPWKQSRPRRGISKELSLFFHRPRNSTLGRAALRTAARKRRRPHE

[2] = target: B1; test: native gel or EMSA

| Binder | stoichiometry N [1] | binding result [2] |
| --- | --- | --- |
| B1 | 0.9 |  |
| GGRLQFFKDGKFILELARSKDGDKSGWVSVTRKTFRPP (domain or fragment) [Hairless NT (amino acids 232–269)] |  | binds |
